The values below come from patent publication US20210246217A1 (LEADARTIS S L, published 2021).

Test [1] addresses murine 4-1BB on the cell surface (mouse) (UniProt P20334). Kind of test: cell-based or functional assay.
Test [2] addresses T1, recombinant mouse TNFSF9 (4-1BBL) (mouse, UniProt P41274 104-309, limits assumed).
T1 construct: It was detected through a tag in FACS and carried the CF488A label in RICS; also called m4-1BBL; recombinant soluble mouse 4-1BBL
T1 sequence (looked up): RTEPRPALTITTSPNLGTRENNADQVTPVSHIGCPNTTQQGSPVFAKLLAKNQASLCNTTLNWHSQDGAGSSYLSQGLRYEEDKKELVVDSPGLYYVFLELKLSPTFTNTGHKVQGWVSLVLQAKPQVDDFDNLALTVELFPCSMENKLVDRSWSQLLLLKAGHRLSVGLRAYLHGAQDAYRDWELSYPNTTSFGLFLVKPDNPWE
Description: competition ELISA on immobilized m4-1BB. The method, then: Both m4-1BB (3 μg/ml) or hEGFR (5 μg/ml) were immobilized on Maxisorp ELISA plates (NUNC Brand Products, Roskilde, Denmark) overnight at 4° C. After washing and blocking with 200 μl PBS-5% BSA, 100 μl of conditioned media or purified protein solution at 1 μg/ml were added and incubated for 1 hour at room temperature. The wells were washed for three times with PBS0.05% Tween-20, and 100 μl of anti-c-myc mAh or anti-FLAG mAh were added for 1 hour incubation at room temperature. The plate was washed as above described and 100 μl of HRP-conjugated goat anti-mouse IgG were added to each well. Afterwards, the plate was washed and developed using OPD (Sigma-Aldrich). For competition ELISA, m4-1BB (3 μg/ml) was immobilized overnight at 4° C. After washing and blocking, recombinant m4-1BBL was added at desired concentration to the wells for 1 hour. Afterwards, purified antibody solution was serially diluted in blocking buffer, added to the wells and incubated for 1 hour at room temperature. Following standard washing steps, anti-FLAG mAh solution was added for 1 hour. After washing HRP-conjugated goat anti-mouse IgG was added and developed using OPD.
(An ELISA detects its analyte on a solid surface through an enzyme-linked reagent.)

A further test deals with T2, human CEA (hCEA) (human, UniProt P06731 35-685, limits assumed).
T2 construct: also called carcinoembryonic antigen
T2 sequence (looked up): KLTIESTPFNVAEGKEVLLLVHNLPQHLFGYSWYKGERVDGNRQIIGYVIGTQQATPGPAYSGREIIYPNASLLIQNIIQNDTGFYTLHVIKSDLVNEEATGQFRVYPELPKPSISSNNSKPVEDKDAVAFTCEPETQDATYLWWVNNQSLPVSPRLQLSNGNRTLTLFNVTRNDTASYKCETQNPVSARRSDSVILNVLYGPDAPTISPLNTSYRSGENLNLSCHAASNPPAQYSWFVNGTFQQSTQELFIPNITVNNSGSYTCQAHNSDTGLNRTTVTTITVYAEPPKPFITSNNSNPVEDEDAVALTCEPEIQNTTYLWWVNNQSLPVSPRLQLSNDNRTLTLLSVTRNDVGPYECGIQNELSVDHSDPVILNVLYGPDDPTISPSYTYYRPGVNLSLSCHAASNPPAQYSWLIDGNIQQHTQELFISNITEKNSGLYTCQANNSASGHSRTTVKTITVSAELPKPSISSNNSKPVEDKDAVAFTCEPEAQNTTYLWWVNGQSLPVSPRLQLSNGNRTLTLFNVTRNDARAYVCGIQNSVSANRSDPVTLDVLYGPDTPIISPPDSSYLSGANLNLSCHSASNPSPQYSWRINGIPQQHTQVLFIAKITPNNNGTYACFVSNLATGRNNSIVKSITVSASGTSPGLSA
Kind of test: BLI, m4-1BB-coated biosensors, hCEA in solution. The method, then:
FIG. 26. Functional characterization of purified 1D8^{N/C}CEA.1 trimerbody. Biolayer interferometry (BLI)-derived sensorgrams from the interactions between immobilized m4-1BB and 1D8^{N/C}CEA. 1 at 4 or 2 nM. Experimental responses are traced in black, and fitting curves are in gray (A). […] 1 bispecificity towards biosensors coated with m4-1BB and hCEA in solution (B and C). Following association with either 1D8^{N/C}CEA.1 or 1D8^N18 (sample indicated with arrows) or kinetics buffer only (sample indicated with arrows), biosensors were transferred into 50 nM of hCEA (black and red) or kinetics buffer only (blue and green).
The ability of 1D8^{N/C}CEA.1 to bind biosensor-immobilized m4-1BB and hCEA in solution at the same time was investigated using biolayer interferometry (BLI) on an Octet RED96 system (Fortebio, Menlo Park, Calif., USA). AR2G biosensors (Fortebio) were activated using s-NHS and EDC, and then coated with 10 μg/mL m4-1BB in 10 mM sodium acetate at pH 6 for 20 minutes, followed by quenching with ethanolamine. After 10 minutes of equilibration in kinetics buffer (PBS with 0.1% BSA and 0.05% Tween20), the coated biosensors were incubated in kinetics buffer containing 4 nM of 1D8^N18, 1D8^{N/C}CEA. 1, or only kinetics buffer for one hour. […]

Regarding “rat IgG2a anti-mouse 4-1BB (clone 1D8) (antibody)”, in test [1], the lateral mobility at the plasma membrane (diffusion coefficient, RICS), before clustering amounted to 1.5 µm^2/sec and the lateral mobility at the plasma membrane (diffusion coefficient, RICS), in clusters stood at 0.35 µm^2/sec.

B1: mouse 4-1BB:hFc chimera (m4-1BB) (Fc fusion, UniProt P20334 24-187, looked up)
chain: VQNSCDNCQPGTFCRKYNPVCKSCPPSTFSSIGGQPNCNICRVCAGYFRFKKFCSSTHNAECECIEGFHCLGPQCTRCEKDCRPGQELTKQGCKTCSLGTFNDQNGTGVCRPWTNCSLDGRSVLKTGTTEKDVVCGPPVVSFSPSTTISVTPEGGPGGHSLQVL
notes: Bought from R&D Systems; also called murine 4-1BB in fusion with human Fc; not shown: human Fc
Regarding B1, the figures for the binding result (in test [2]; in the test with human CEA (hCEA)) were “binds” and “no binding (tested: 50 nM of hCEA)”, respectively.
